For this experiment, the system named is chimeric Caspase-9 polypeptide. Kind of experiment: Caspase mutant classes and basal activity (Table 3). Format: cell-based, human. As to conditions: class heading of Table 3; for IC50: ligand IC50.
Sequence of chimeric Caspase-9 polypeptide (as listed by the source, change not shown): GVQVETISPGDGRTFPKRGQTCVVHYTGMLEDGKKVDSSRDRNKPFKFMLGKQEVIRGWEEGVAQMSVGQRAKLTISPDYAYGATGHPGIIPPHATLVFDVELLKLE

B1: N405Q (protein)
chain: GFGDVGALESLRGNADLAYILSMEPCGHCLIINNVNFCRESGLRTRTGSNIDCEKLRRRFSSLHFMVEVKGDLTAKKMVLALLELAQQDHGALDCCVVVILSHGCQASHLQFPGAVYGTDGCPVSVEKIVNIFNGTSCPSLGGKPKLFFIQACGGEQKDHGFEVASTSPEDESPGSNPEPDATPFQEGLRTFDQLDAISSLPTPSDIFVSYSTFPGFVSWRDPKSGSWYVETLDDIFEQWAHSEDLQSLLLRVANAVSVKGIYKQMPGCFQFLRKKLFFKTS
Consider B1, for which the “Basal Activity” value is recorded as “Decreased” and the IC50 entry was “higher IC50”.

B2: D330G (protein)
chain: GFGDVGALESLRGNADLAYILSMEPCGHCLIINNVNFCRESGLRTRTGSNIDCEKLRRRFSSLHFMVEVKGDLTAKKMVLALLELAQQDHGALDCCVVVILSHGCQASHLQFPGAVYGTDGCPVSVEKIVNIFNGTSCPSLGGKPKLFFIQACGGEQKDHGFEVASTSPEDESPGSNPEPDATPFQEGLRTFDQLGAISSLPTPSDIFVSYSTFPGFVSWRDPKSGSWYVETLDDIFEQWAHSEDLQSLLLRVANAVSVKGIYKQMPGCFNFLRKKLFFKTS
As for B2, the “Basal Activity” value is listed as “Decreased” and the IC50 entry was “higher IC50”.

B3: L329E (protein)
chain: GFGDVGALESLRGNADLAYILSMEPCGHCLIINNVNFCRESGLRTRTGSNIDCEKLRRRFSSLHFMVEVKGDLTAKKMVLALLELAQQDHGALDCCVVVILSHGCQASHLQFPGAVYGTDGCPVSVEKIVNIFNGTSCPSLGGKPKLFFIQACGGEQKDHGFEVASTSPEDESPGSNPEPDATPFQEGLRTFDQEDAISSLPTPSDIFVSYSTFPGFVSWRDPKSGSWYVETLDDIFEQWAHSEDLQSLLLRVANAVSVKGIYKQMPGCFNFLRKKLFFKTS
On to B3, for which the “Basal Activity” value was “Decreased” and the IC50 entry was “higher IC50”.

B4: D330N (protein)
chain: GFGDVGALESLRGNADLAYILSMEPCGHCLIINNVNFCRESGLRTRTGSNIDCEKLRRRFSSLHFMVEVKGDLTAKKMVLALLELAQQDHGALDCCVVVILSHGCQASHLQFPGAVYGTDGCPVSVEKIVNIFNGTSCPSLGGKPKLFFIQACGGEQKDHGFEVASTSPEDESPGSNPEPDATPFQEGLRTFDQLNAISSLPTPSDIFVSYSTFPGFVSWRDPKSGSWYVETLDDIFEQWAHSEDLQSLLLRVANAVSVKGIYKQMPGCFNFLRKKLFFKTS
As to B4, the “Basal Activity” value is listed as “Decreased” and the IC50 entry is on record as “higher IC50”.

B5: S195A (protein)
chain: GFGDVGALESLRGNADLAYILSMEPCGHCLIINNVNFCRESGLRTRTGSNIDCEKLRRRFASLHFMVEVKGDLTAKKMVLALLELAQQDHGALDCCVVVILSHGCQASHLQFPGAVYGTDGCPVSVEKIVNIFNGTSCPSLGGKPKLFFIQACGGEQKDHGFEVASTSPEDESPGSNPEPDATPFQEGLRTFDQLDAISSLPTPSDIFVSYSTFPGFVSWRDPKSGSWYVETLDDIFEQWAHSEDLQSLLLRVANAVSVKGIYKQMPGCFNFLRKKLFFKTS
B5: the “Basal Activity” value is listed as “Decreased” and the IC50 result is reported as “higher IC50”.

B6: D330S (protein)
chain: GFGDVGALESLRGNADLAYILSMEPCGHCLIINNVNFCRESGLRTRTGSNIDCEKLRRRFSSLHFMVEVKGDLTAKKMVLALLELAQQDHGALDCCVVVILSHGCQASHLQFPGAVYGTDGCPVSVEKIVNIFNGTSCPSLGGKPKLFFIQACGGEQKDHGFEVASTSPEDESPGSNPEPDATPFQEGLRTFDQLSAISSLPTPSDIFVSYSTFPGFVSWRDPKSGSWYVETLDDIFEQWAHSEDLQSLLLRVANAVSVKGIYKQMPGCFNFLRKKLFFKTS
As to B6, the “Basal Activity” value was “Decreased” and the IC50 result is reported as “higher IC50”.

B7: S196A (protein)
chain: GFGDVGALESLRGNADLAYILSMEPCGHCLIINNVNFCRESGLRTRTGSNIDCEKLRRRFSALHFMVEVKGDLTAKKMVLALLELAQQDHGALDCCVVVILSHGCQASHLQFPGAVYGTDGCPVSVEKIVNIFNGTSCPSLGGKPKLFFIQACGGEQKDHGFEVASTSPEDESPGSNPEPDATPFQEGLRTFDQLDAISSLPTPSDIFVSYSTFPGFVSWRDPKSGSWYVETLDDIFEQWAHSEDLQSLLLRVANAVSVKGIYKQMPGCFNFLRKKLFFKTS
For the molecule B7, the “Basal Activity” value is reported as “Decreased” and the IC50 entry is given as “higher IC50”.

B8: D330V (protein)
chain: GFGDVGALESLRGNADLAYILSMEPCGHCLIINNVNFCRESGLRTRTGSNIDCEKLRRRFSSLHFMVEVKGDLTAKKMVLALLELAQQDHGALDCCVVVILSHGCQASHLQFPGAVYGTDGCPVSVEKIVNIFNGTSCPSLGGKPKLFFIQACGGEQKDHGFEVASTSPEDESPGSNPEPDATPFQEGLRTFDQLVAISSLPTPSDIFVSYSTFPGFVSWRDPKSGSWYVETLDDIFEQWAHSEDLQSLLLRVANAVSVKGIYKQMPGCFNFLRKKLFFKTS
Regarding B8, the “Basal Activity” value was “Decreased” and the IC50 result was “higher IC50”.

B9: T317A (protein)
chain: GFGDVGALESLRGNADLAYILSMEPCGHCLIINNVNFCRESGLRTRTGSNIDCEKLRRRFSSLHFMVEVKGDLTAKKMVLALLELAQQDHGALDCCVVVILSHGCQASHLQFPGAVYGTDGCPVSVEKIVNIFNGTSCPSLGGKPKLFFIQACGGEQKDHGFEVASTSPEDESPGSNPEPDAAPFQEGLRTFDQLDAISSLPTPSDIFVSYSTFPGFVSWRDPKSGSWYVETLDDIFEQWAHSEDLQSLLLRVANAVSVKGIYKQMPGCFNFLRKKLFFKTS
Turning to B9, the “Basal Activity” value is recorded as “Decreased” and the IC50 result is given as “higher IC50”.

B10: S183A (protein)
chain: GFGDVGALESLRGNADLAYILSMEPCGHCLIINNVNFCRESGLRTRTGANIDCEKLRRRFSSLHFMVEVKGDLTAKKMVLALLELAQQDHGALDCCVVVILSHGCQASHLQFPGAVYGTDGCPVSVEKIVNIFNGTSCPSLGGKPKLFFIQACGGEQKDHGFEVASTSPEDESPGSNPEPDATPFQEGLRTFDQLDAISSLPTPSDIFVSYSTFPGFVSWRDPKSGSWYVETLDDIFEQWAHSEDLQSLLLRVANAVSVKGIYKQMPGCFNFLRKKLFFKTS
Regarding B10, the “Basal Activity” value is listed as “Decreased” and the IC50 result was “higher IC50”.

B11: D330A-N405Q (protein)
chain: GFGDVGALESLRGNADLAYILSMEPCGHCLIINNVNFCRESGLRTRTGSNIDCEKLRRRFSSLHFMVEVKGDLTAKKMVLALLELAQQDHGALDCCVVVILSHGCQASHLQFPGAVYGTDGCPVSVEKIVNIFNGTSCPSLGGKPKLFFIQACGGEQKDHGFEVASTSPEDESPGSNPEPDATPFQEGLRTFDQLAAISSLPTPSDIFVSYSTFPGFVSWRDPKSGSWYVETLDDIFEQWAHSEDLQSLLLRVANAVSVKGIYKQMPGCFQFLRKKLFFKTS
In the case of B11, the “Basal Activity” value is “Decreased” and the IC50 entry was “higher IC50”.

The values are drawn from patent US20160263155A1, “T CELL RECEPTORS DIRECTED AGAINST THE PREFERENTIALLY EXPRESSED ANTIGEN OF MELANOMA AND USES THEREOF” (LEIDEN UNIVERSITY MEDICAL CENTER, priority 2015, published 2016).
